Reference: article PMC13315262, “In silico discovery of nanobody binders to a G-protein coupled receptor using AlphaFold-Multimer” (Nature Communications, 2026)
Numbering of substitutions follows the chain as printed. Numbers in names are those of the source.

B1: MAS-related GPR family member X2 (MRGPRX2), endogenous on ROSA mast cells (receptor, human (endogenous in ROSA), UniProt Q96LB1 1-330, looked up)
chain: MDPTTPAWGTESTTVNGNDQALLLLCGKETLIPVFLILFIALVGLVGNGFVLWLLGFRMRRNAFSVYVLSLAGADFLFLCFQIINCLVYLSNFFCSISINFPSFFTTVMTCAYLAGLSMLSTVSTERCLSVLWPIWYRCRRPRHLSAVVCVLLWALSLLLSILEGKFCGFLFSDGDSGWCQTFDFITAAWLIFLFMVLCGSSLALLVRILCGSRGLPLTRLYLTILLTVLVFLLCGLPFGIQWFLILWIWKDSDVLFCHIHPVSVVLSSLNSSANPIIYFFVGSFRKQWRLQQPILKLALQRALQDIAEVDHSEGCFRQGTPEMSRSSLV
notes: MAS-related GPR family member X2 (MRGPRX2), a GPCR, endogenously expressed at high levels on the ROSA mast cell line; source: endogenous, on ROSA mast cells (immortalized mast cell line)
B2: Nanobody Sim8619 (rank 1) with an R102A mutation (VHH)
VHH: QVQLQESGGGLVQAGGSLRLSCAASGSIFYIRGMGWYRQAPGKERELVAGIDVGAITYYADSVKGRFTISRDNAKNTVYLQMNSLKPEDTAVYYCAVWAYTAAGYTTVYAYWGQGTQVTVSS
notes: as the nanobody of m5 (Sim8619); the ROSA cell assay is told only for Fc fusions, nanobody variants are told as monomers from E. coli; also called R102A mutant; Sim8619 R102A
B3: Nanobody Sim8619 (rank 1), monomeric (monovalent format) (VHH)
VHH: B2 VHH with A102R
notes: source: E. coli BL21-DE3 (pET-26b), purified (protein A, Ni-NTA); not shown: V5, C-terminal, kept
B4: Nanobody Sim9877 (rank 5), monomeric (monovalent format) (VHH)
VHH: QVQLQESGGGLVQAGGSLRLSCAASGYISSFPVMGWYRQAPGKERELVAAIGSGGITYYADSVKGRFTISRDNAKNTVYLQMNSLKPEDTAVYYCAVAGYNIGSYYYWGQGTQVTVSS
notes: as for B3
B5: Nanobody Sim4784 (rank 7), monomeric (monovalent format) (VHH)
VHH: QVQLQESGGGLVQAGGSLRLSCAASGTISPPTYMGWYRQAPGKERELVASIGAGSNTNYADSVKGRFTISRDNAKNTVYLQMNSLKPEDTAVYYCAAIFGRLWYHLYWGQGTQVTVSS
notes: as for B3
B6: human N-terminal FLAG-tagged MRGPRX2, on transfected HEK293T cells (receptor, UniProt Q96LB1 1-330, looked up)
chain: B1 chain
notes: MRGPRX2, human, N-terminal FLAG-tagged, in a pcDNA3.1 expression vector; also called FLAG-MRGPRX2; wild type MRGPRX2; source: HEK293T, transiently transfected (pcDNA3.1), on cells; not shown: FLAG, N-terminal, kept

Legend:
Settings in all cases: one partner purified
[1] = molecular target: T1, Nanobody Sim4784 (rank 7), human IgG1 Fc fusion; test: flow cytometry on cells; dose response of nanobody on ROSA mast cells (100,000 cells per well), 30 min at 4 °C; anti-human IgG Fc-AF488; MFI; for Kd the non-specific signal was the MFI with Nb 60
T1 construct: (GGS)3 linker between the nanobody and the Fc; cloned into pFUSE-CHIg-hG1 with H435A in the Fc; source: Expi293F, transiently transfected, purified (protein A); not shown: Fc (human IgG1, H435A), C-terminal, kept

[2] = molecular target: T2, Nanobody Sim9877 (rank 5), human IgG1 Fc fusion; test: as above
T2 construct: (GGS)3 linker between the nanobody and the Fc; cloned into pFUSE-CHIg-hG1 with H435A in the Fc; also called Nb Sim9877; source: Expi293F, transiently transfected, purified (protein A); not shown: Fc (human IgG1, H435A), C-terminal, kept

[3] = molecular target: T3, Nanobody Sim8619 (rank 1), human IgG1 Fc fusion; test: as above
T3 construct: (GGS)3 linker between the nanobody and the Fc; cloned into pFUSE-CHIg-hG1 with H435A in the Fc; also called Nb Sim 8619; source: Expi293F, transiently transfected, purified (protein A); not shown: Fc (human IgG1, H435A), C-terminal, kept

[4] = molecular target: B1; test: as above
[5] = molecular target: B6; test: flow cytometry on cells; monomeric nanobody or variant with V5 tag, 1-2 h at 4 °C, on HEK293T cells transfected with FLAG-MRGPRX2, FLAG-MC4R, FLAG-CXCR3 or empty vector; HBS + 0.1% BSA + 2 mM calcium; anti-V5-APC
[6] = molecular target: T4, FLAG-MC4R, on transfected HEK293T cells (Homo sapiens (Human)., UniProt P32245); test: as above
T4 construct: source: HEK293T, transiently transfected, on cells

[7] = molecular target: T1, Nanobody Sim4784 (rank 7), human IgG1 …; test: flow cytometry on cells; nanobody-Fc at the indicated concentrations, 1 h at 4 °C, on HEK293T cells transfected with FLAG-MRGPRX2, MRGPRX2 E164A D184A or empty vector; HBS + 2% FBS + 0.05% BSA; anti-human Fc-AF647; non-specific signal from empty-vector cells
[8] = molecular target: T2, Nanobody Sim9877 (rank 5), human IgG1 …; test: as above
[9] = molecular target: T3, Nanobody Sim8619 (rank 1), human IgG1 …; test: as above

T4 sequence (P32245 whole entry): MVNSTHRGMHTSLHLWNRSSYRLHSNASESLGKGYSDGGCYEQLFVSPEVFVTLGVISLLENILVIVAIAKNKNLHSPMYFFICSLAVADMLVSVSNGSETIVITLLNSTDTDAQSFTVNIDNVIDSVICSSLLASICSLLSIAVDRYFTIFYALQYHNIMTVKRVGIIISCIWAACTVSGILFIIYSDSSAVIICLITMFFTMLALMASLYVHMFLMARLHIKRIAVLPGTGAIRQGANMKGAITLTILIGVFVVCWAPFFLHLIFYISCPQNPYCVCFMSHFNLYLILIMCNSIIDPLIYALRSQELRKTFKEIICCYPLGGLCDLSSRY

## B1
[1]
  Kd: 50 nM
[2]
  Kd: 20 nM
[3]
  Kd: 100 nM

## B2
[4]
  EC50: 210 nM

## B3
[5]
  binding result: binds

## B4
[5]
  binding result: binds

## B5
[6]
  binding result: binds
[5]
  binding result: binds

## B6
[7]
  Kd: 80 nM
[8]
  Kd: 160 nM
[9]
  Kd: 200 nM
